Reference: IntAct's records for PubMed 20696938

B1: DNA topoisomerase 4 subunit A (Escherichia coli (strain K12)), P0AFI2 (parent)
chain: MSDMAERLALHEFTENAYLNYSMYVIMDRALPFIGDGLKPVQRRIVYAMSELGLNASAKFKKSARTVGDVLGKYHPHGDSACYEAMVLMAQPFSYRYPLVDGQGNWGAPDDPKSFAAMRYTESRLSKYSELLLSELGQGTADWVPNFDGTLQEPKMLPARLPNILLNGTTGIAVGMATDIPPHNLREVAQAAIALIDQPKTTLDQLLDIVQGPDYPTEAEIITSRAEIRKIYENGRGSVRMRAVWKKEDGAVVISALPHQVSGARVLEQIAAQMRNKKLPMVDDLRDESDHENPTRLVIVPRSNRVDMDQVMNHLFATTDLEKSYRINLNMIGLDGRPAVKNLLEILSEWLVFRRDTVRRRLNYRLEKVLKRLHILEGLLVAFLNIDEVIEIIRNEDEPKPALMSRFGLTETQAEAILELKLRHLAKLEEMKIRGEQSELEKERDQLQGILASERKMNNLLKKELQADAQAYGDDRRSPLQEREEAKAMSEHDMLPSEPVTIVLSQMGWVRSAKGHDIDAPGLNYKAGDSFKAAVKGKSNQPVVFVDSTGRSYAIDPITLPSARGQGEPLTGKLTLPPGATVDHMLMESDDQKLLMASDAGYGFVCTFNDLVARNRAGKALITLPENAHVMPPVVIEDASDMLLAITQAGRMLMFPVSDLPQLSKGKGNKIINIPSAEAARGEDGLAQLYVLPPQSTLTIHVGKRKIKLRPEELQKVTGERGRRGTLMRGLQRIDRVEIDSPRRASSGDSEE
partner: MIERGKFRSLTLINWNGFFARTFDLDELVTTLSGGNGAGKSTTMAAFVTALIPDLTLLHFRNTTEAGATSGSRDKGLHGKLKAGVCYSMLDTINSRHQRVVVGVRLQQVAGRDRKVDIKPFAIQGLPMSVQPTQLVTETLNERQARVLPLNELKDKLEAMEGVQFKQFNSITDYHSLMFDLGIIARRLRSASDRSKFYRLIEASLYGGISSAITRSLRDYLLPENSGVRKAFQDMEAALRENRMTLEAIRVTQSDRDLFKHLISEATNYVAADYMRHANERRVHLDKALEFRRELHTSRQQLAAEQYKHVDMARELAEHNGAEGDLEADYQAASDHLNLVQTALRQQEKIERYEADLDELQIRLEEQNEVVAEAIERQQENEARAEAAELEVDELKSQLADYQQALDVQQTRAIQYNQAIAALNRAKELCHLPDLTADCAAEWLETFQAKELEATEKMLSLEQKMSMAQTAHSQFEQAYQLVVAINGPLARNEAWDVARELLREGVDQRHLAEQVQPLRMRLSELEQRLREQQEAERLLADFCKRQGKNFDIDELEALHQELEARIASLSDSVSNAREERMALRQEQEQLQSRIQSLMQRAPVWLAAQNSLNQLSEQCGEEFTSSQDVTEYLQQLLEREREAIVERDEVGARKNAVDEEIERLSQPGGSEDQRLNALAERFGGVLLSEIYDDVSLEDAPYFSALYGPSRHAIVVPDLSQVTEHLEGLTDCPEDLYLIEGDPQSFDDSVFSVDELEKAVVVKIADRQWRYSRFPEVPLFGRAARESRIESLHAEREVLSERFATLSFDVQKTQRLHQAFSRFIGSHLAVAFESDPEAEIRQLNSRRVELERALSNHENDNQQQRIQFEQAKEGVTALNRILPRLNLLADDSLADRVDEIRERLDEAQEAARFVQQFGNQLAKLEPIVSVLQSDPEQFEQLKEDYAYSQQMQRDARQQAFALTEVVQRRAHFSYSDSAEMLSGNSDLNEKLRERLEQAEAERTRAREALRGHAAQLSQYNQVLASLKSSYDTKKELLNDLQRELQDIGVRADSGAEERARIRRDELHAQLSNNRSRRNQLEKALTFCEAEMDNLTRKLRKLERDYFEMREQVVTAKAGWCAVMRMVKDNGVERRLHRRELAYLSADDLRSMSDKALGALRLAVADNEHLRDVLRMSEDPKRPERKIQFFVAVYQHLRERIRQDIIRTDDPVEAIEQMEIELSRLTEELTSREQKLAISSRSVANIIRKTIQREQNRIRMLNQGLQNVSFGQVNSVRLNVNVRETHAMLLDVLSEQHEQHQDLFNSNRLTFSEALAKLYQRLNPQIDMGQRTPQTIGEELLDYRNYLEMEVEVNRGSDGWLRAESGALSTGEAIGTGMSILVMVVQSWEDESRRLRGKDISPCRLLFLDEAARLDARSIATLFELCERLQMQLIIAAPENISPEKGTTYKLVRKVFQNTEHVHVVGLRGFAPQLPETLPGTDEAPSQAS

Variants of: B1
Conditions: with mukb_ecoli mukB

Variant	effect of a mutation on the interaction
R705E;R729A	disrupting interaction
R705E	disrupting interaction
R729A	disrupting interaction
